Results reported in patent US20220204580A1 (AstraZeneca / MedImmune, published 2022).
Numbered stars: 1 amine (or outer) side, 2 acyl side, 3 side chain; on linkers, the order of the positions; unused ones are H or OH. Bridge positions count the residues as written; N and C are the ends. Square brackets hold non-standard residues; d marks the D form. Side chains are listed from the residue outwards. Ends that are not written are not given here. * marks the point of attachment. C18 diacid = O=C(O)CCCCCCCCCCCCCCCCC(=O)*; γGlu = O=C(O)[C@H](CCC(=O)[*:2])N[*:1]; Aib = CC(C)(N)C(=O)O

Legend:
[1] = target: T1, human calcitonin receptor (human, UniProt P30988 25-474); test: cell-based or functional assay
T1 sequence (looked up): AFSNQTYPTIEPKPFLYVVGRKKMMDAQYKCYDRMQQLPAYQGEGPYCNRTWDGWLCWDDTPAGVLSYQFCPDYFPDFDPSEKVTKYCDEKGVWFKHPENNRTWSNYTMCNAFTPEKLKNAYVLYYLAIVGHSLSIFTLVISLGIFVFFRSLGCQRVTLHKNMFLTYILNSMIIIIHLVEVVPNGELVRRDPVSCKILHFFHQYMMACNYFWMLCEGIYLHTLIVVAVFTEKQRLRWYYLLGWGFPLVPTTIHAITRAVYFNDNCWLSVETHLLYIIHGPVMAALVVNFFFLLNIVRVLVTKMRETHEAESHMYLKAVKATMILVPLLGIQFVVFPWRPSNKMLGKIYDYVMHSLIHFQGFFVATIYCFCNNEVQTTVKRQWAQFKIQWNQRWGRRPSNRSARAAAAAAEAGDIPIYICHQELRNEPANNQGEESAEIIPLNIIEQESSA

[2] = target: T2, human amylin receptor (calcitonin receptor co-expressed with receptor activity modifying protein, RAMP3) (human, UniProt P30988 25-474; O60896 24-148); test: cell-based or functional assay
T2 sequence (looked up) 1: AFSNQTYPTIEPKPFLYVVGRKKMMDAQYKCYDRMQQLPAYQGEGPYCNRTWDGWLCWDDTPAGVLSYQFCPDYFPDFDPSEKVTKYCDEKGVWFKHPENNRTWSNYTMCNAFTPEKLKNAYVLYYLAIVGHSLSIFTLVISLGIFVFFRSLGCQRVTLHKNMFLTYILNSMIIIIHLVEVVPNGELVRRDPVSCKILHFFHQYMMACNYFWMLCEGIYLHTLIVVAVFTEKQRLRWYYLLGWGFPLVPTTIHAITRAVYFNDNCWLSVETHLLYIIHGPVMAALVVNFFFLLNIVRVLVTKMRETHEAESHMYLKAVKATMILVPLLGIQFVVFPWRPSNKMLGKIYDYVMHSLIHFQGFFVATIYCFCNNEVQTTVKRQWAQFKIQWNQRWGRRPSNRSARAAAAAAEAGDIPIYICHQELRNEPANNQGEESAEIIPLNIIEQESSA
T2 sequence (looked up) 2: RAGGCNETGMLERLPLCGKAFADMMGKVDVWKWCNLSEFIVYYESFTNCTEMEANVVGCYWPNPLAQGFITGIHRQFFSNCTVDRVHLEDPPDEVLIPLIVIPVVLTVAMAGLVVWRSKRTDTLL

B1: Peptide 56 (SEQ ID NO: 56) (peptide)
peptide: K([γGlu-C18 diacid])CNTATCATQRLANFLVHSS[Aib]NFGPILPPTNVGSNTY-NH2
modifications: disulfide 2-7; N-terminus assumed
SMILES: CC[C@H](C)[C@H](NC(=O)[C@@H]1CCCN1C(=O)CNC(=O)[C@H](Cc1ccccc1)NC(=O)[C@H](CC(N)=O)NC(=O)C(C)(C)NC(=O)[C@H](CO)NC(=O)[C@H](CO)NC(=O)[C@H](Cc1c[nH]cn1)NC(=O)[C@@H](NC(=O)[C@H](CC(C)C)NC(=O)[C@H](Cc1ccccc1)NC(=O)[C@H](CC(N)=O)NC(=O)[C@H](C)NC(=O)[C@H](CC(C)C)NC(=O)[C@H](CCCNC(=N)N)NC(=O)[C@H](CCC(N)=O)NC(=O)[C@@H](NC(=O)[C@H](C)NC(=O)[C@@H]1CSSC[C@H](NC(=O)[C@@H](N)CCCCNC(=O)CC[C@H](NC(=O)CCCCCCCCCCCCCCCCC(=O)O)C(=O)O)C(=O)N[C@@H](CC(N)=O)C(=O)N[C@@H]([C@@H](C)O)C(=O)N[C@@H](C)C(=O)N[C@@H]([C@@H](C)O)C(=O)N1)[C@@H](C)O)C(C)C)C(=O)N[C@@H](CC(C)C)C(=O)N1CCC[C@H]1C(=O)N1CCC[C@H]1C(=O)N[C@H](C(=O)N[C@@H](CC(N)=O)C(=O)N[C@H](C(=O)NCC(=O)N[C@@H](CO)C(=O)N[C@@H](CC(N)=O)C(=O)N[C@H](C(=O)N[C@@H](Cc1ccc(O)cc1)C(N)=O)[C@@H](C)O)C(C)C)[C@@H](C)O
- EC50 (cAMP production) [1]: 493 pM
- EC50 (cAMP production) [2]: 70 pM
- Ratio (EC50 hCTR / EC50 hAMYR3) [2]: 7

B2: Peptide 58 (SEQ ID NO: 58) (peptide)
peptide: K([γGlu-C18 diacid])KCNTATCATQRLANFLVHSS[Aib]NFGPILPPTNVGSNTP-NH2
modifications: disulfide 3-8; N-terminus assumed
SMILES: CC[C@H](C)[C@H](NC(=O)[C@@H]1CCCN1C(=O)CNC(=O)[C@H](Cc1ccccc1)NC(=O)[C@H](CC(N)=O)NC(=O)C(C)(C)NC(=O)[C@H](CO)NC(=O)[C@H](CO)NC(=O)[C@H](Cc1c[nH]cn1)NC(=O)[C@@H](NC(=O)[C@H](CC(C)C)NC(=O)[C@H](Cc1ccccc1)NC(=O)[C@H](CC(N)=O)NC(=O)[C@H](C)NC(=O)[C@H](CC(C)C)NC(=O)[C@H](CCCNC(=N)N)NC(=O)[C@H](CCC(N)=O)NC(=O)[C@@H](NC(=O)[C@H](C)NC(=O)[C@@H]1CSSC[C@H](NC(=O)[C@H](CCCCN)NC(=O)[C@@H](N)CCCCNC(=O)CC[C@H](NC(=O)CCCCCCCCCCCCCCCCC(=O)O)C(=O)O)C(=O)N[C@@H](CC(N)=O)C(=O)N[C@@H]([C@@H](C)O)C(=O)N[C@@H](C)C(=O)N[C@@H]([C@@H](C)O)C(=O)N1)[C@@H](C)O)C(C)C)C(=O)N[C@@H](CC(C)C)C(=O)N1CCC[C@H]1C(=O)N1CCC[C@H]1C(=O)N[C@H](C(=O)N[C@@H](CC(N)=O)C(=O)N[C@H](C(=O)NCC(=O)N[C@@H](CO)C(=O)N[C@@H](CC(N)=O)C(=O)N[C@H](C(=O)N1CCC[C@H]1C(N)=O)[C@@H](C)O)C(C)C)[C@@H](C)O
- EC50 (cAMP production) [1]: 65 pM
- EC50 (cAMP production) [2]: 71 pM
- Ratio (EC50 hCTR / EC50 hAMYR3) [2]: 1
